Laboratory results as given in patent publication US20240294926.

Test system: PARP (endogenous, MDA-MB-231 cells) (Homo sapiens)
Assay: cell_activity
Conditions: cholesterol-conjugated, HEG loop, 5 uM, 48 h

Sequence	activity (% PARylated cells) (3 PS linkages on each strand, PARP activation weaker than OX413)	activity (% PARylated cells) (FANA (2'-deoxy-2'-fluoroarabino) nucleotides and PS linkages (positions only in images), PARP activation)
CCCAGCAAACAAGCCT (double strand) [OX401]	20	–
CCCAGCAAACAAGCCT (double strand) [OX413]	–	> 40
